The data set addresses HsAGO2 D669A (catalytically dead) (Homo sapiens, UniProt Q9UKV8 1-859, D669A). In words: cryo-EM (3.3 A); 1 mM Mg2+; one Mg modelled; Dissociation filter binding: 17.6 mM HEPES pH 7.4, 97.8 mM KOAc, 0.978 mM Mg(OAc)2, 5 mM DTT, BSA, yeast tRNA, 0.01% IGEPAL, 1.6% glycerol, 37 C; cryo-EM complex: 50 mM Tris pH 7.5, 150 mM NaCl, 1 mM MgCl2, 2% glycerol, 0.5 mM TCEP (target bound at 25 C in 10% glycerol). Conditions: protein: recombinant; tags: 3xFLAG-SUMOEu1, cleaved off by SENPEuB; label: biotin on target 3' end (click, diazo biotin azide); guide-target paired from g2 to g22; target overhangs 5' 3 nt and 3' 3 nt; g1 not paired.

Consider 1 molecule from doi:10.1101/2024.08.19.608718, “The structural basis for RNA slicing by human Argonaute2”.

Sequence of HsAGO2 D669A (catalytically dead) (Q9UKV8 whole entry D669A): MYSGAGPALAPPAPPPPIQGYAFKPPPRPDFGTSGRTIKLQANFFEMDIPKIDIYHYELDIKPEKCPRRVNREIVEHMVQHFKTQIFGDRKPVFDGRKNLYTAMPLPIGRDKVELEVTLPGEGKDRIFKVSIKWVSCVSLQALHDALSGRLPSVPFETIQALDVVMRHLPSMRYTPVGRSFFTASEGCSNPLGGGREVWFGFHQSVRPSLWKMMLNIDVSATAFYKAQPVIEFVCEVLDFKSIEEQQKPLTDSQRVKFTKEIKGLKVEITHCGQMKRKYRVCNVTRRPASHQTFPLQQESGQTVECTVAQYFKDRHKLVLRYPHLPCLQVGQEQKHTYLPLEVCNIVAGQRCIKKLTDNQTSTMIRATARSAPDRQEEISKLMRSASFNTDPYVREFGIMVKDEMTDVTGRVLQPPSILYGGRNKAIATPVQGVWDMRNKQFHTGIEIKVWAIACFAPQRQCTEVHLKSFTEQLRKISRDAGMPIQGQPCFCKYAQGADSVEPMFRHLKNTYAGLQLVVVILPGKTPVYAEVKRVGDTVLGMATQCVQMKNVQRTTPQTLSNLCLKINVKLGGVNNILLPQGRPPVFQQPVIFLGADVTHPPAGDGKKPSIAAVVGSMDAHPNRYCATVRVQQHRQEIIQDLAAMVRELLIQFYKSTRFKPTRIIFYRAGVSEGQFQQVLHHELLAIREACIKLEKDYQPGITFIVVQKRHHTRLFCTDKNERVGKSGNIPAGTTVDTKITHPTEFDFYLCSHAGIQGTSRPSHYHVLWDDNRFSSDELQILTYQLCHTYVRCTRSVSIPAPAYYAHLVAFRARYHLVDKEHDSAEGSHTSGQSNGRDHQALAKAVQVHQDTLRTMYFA

B1: miR-7 guide (22 nt) / fully complementary target (dsRNA)
RNA 1: UGGAAGACUAGUGAUUUUGUUG
RNA 2: UUUCAACAAAAUCACUAGUCUUCCAAAU
modifications: guide 5'-phosphate; target nt 1-3 (U) and 26-27 (A) 2'-O-methyl; 3'-terminal nt is deoxyuridine with 5-octadiynyl
Consider B1, for which the binding result is recorded as “binds”.
